Results reported in PMC10776578, “Epstein-Barr virus-driven B cell lymphoma mediated by a direct LMP1-TRAF6 complex” (Nature Communications, 2024).
Positions count from the first letter of the chain named. Names and notes keep the numbering of the source.

Experiments:
[1] = target: T1, His-TRAF6_(310-522) (human, UniProt Q9Y4K3 310-522); assay: AlphaScreen or HTRF; AlphaScreen PPI assay: His-TRAF and GST-LMP1, GST-CD40 or GST-RANK in PBS with 0.5% BSA and 0.1% Tween-20, 1 h at RT; standard 300 nM His-TRAF and 100 nM GST protein if not indicated otherwise; for KD His-TRAF6 at different concentrations, fit one site-specific binding with hill slope; conditions: both partners purified
T1 construct: also called His-T6; recombinant TRAF6 wild-type; source: E. coli BL21 Codon Plus RIPL, purified (Ni-NTA)
T1 sequence: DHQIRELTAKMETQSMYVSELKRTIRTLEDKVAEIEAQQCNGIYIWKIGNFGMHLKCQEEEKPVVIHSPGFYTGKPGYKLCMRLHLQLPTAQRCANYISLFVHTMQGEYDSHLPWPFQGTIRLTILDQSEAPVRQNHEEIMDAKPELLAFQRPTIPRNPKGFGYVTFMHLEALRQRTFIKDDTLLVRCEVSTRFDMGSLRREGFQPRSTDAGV

[2] = system: HA-LMP1; assay: Coimmunoprecipitation of HA-LMP1 with Flag-TRAF6 mutants in HEK293 cells; type: cell-based, Epstein-Barr virus
Description: Immunoblotting was essentially performed as described. Proteins were detected on nitrocellulose membranes (Bio-Rad, #1620115) using the following primary antibodies: α−6*His-tag (clone 4A4 or 2F12, source: antibody facility of the Helmholtz Center Munich, hybridoma supernatants were used at a 1:10 dilution)[75], α-TRAF6 (H-274, Santa Cruz Biotech., #sc-7221, used at 1:1000), α-HA-tag (12CA5, Sigma-Aldrich, #11583816001, used at 0.4 µg per mL), α-IκBα (C-21, Santa Cruz Biotech., #sc-371, used at 1:500) and α-Tubulin (B-5-1-2, Santa Cruz Biotech., #sc-23948, used at 1:500). Horseradish peroxidase-coupled antibodies were used as secondary antibodies (Cell Signalling Technology, #7074 or #7076, respectively, both used at 1:5000). ECL signals were captured on X-ray films (Agfa Healthcare) and quantified by densitometry using the ImageJ software. Uncropped scans of immunoblots indicating molecular weights are provided in Supplementary Fig. 6.
HEK293 cells were transfected with 1 µg of pRK5-Flag TRAF6 plasmids, 1 µg of pCMV-HA-LMP1 and 6 µg of pRK5 per 10 cm cell culture dish using PolyFect Transfection Reagent (Qiagen, #301107) in RPMI without supplements. Cells were incubated with the plasmid transfection mix for 4 h before the medium was changed to RPMI full medium. After 24 h, the cells were lysed in NP40-lysis buffer (50 mM HEPES pH 7.5, 150 mM NaCl, 5 mM EDTA, 0.5 mM sodium orthovanadate, 0.5 mM PMSF, 0.5 mM sodium molybdate, and cOmplete protease inhibitor cocktail). Lysates were cleared by centrifugation at 15000 x g for 10 min at 4 °C, and the protein concentration was adjusted to 1 mg per mL. For immunoprecipitation 4 mL of lysate was incubated with the α-Flag antibody 6F7 (Sigma-Aldrich, #F3165; covalently coupled to protein-G-Sepharose) for 1 h at 4 °C. The beads were pelleted at 15000 x g for 30 seconds at 4 °C, washed twice with NP40-lysis buffer, and analyzed by immunoblotting.

[3] = system: GST-CD40_216-277; assay: AlphaScreen PPI, TRAF6 mutants binding to CD40; design: species or system human; TRAF6 binding to CD40 (AlphaScreen), mean: unit not given here
Description: (§1) Fig. 2 LMP1 binds to the receptor-interacting surface of TRAF6. a Mutations within the receptor-interacting surface of TRAF6 affect binding to LMP1. The TRAF6 mutants R392A, K469A, F471A, and Y473A were tested LMP1 in AlphaScreen PPI experiments with GST-LMP1_181-386. Data are mean values ± SD of three independent experiments. Statistics: one-way ANOVA. b TRAF6 R392A differentiates between CD40 and LMP1/RANK. AlphaScreen PPI experiments with GST-CD40_216-277. Data are mean values ± SD of three independent experiments. […] AlphaScreen PPI experiments with GST-RANK314-355. Data are mean values ± SD of four independent experiments. Statistics: one-way ANOVA. d TRAF6 mutants that fail to interact with LMP1 in PPI assays are also unable to bind cellular LMP1. HEK293 cells were co-transfected with HA-LMP1 and the indicated Flag-TRAF6 mutants. Flag-TRAF6 was immunoprecipitated (IP) via its Flag-tag and coprecipitated HA-LMP1 was detected on immunoblots by an α-HA antibody. Uncropped blots in Supplementary Fig. 6b. For statistical analysis LMP1 signals were digitalized and quantified (graph). Data are mean values ± SD of three independent experiments. […] TRAF6 recruitment is dependent on amino acids 371 − 386 of LMP1 (small panel). Confocal microscopy images show representative cells of three independent experiments. Quantitative data are mean values ± SD of ten randomly selected cells per transfection of one representative experiment (graph). Scale bars: 10 µm. Statistics: one-way ANOVA. p-values: *p ≤ 0.05, **p ≤ 0.01, ***p ≤ 0.001, ****p ≤ 0.0001. Source data and exact p-values in the Source Data file.
(§2) AlphaScreen experiments were performed in 96- or 384-well plates (Perkin Elmer, OptiPlate). In both assay formats, His-TRAF and GST-LMP1, GST-CD40, or GST-RANK proteins were incubated together in 40 µL of PBS (protein concentrations were calculated to the final reaction volume of 60 µL) supplemented with 0.5% BSA (Sigma, #A7030) and 0.1% Tween-20 (AppliChem, #A4974), for 1 h at room temperature (RT). If not indicated otherwise, standard protein concentrations were 300 nM for His-TRAF proteins and 100 nM for GST-LMP1 proteins. Ni-NTA-acceptor (Perkin Elmer, #6760619 C) and GST-acceptor (Perkin Elmer, # 6765300) beads were added each to a final concentration of 1–4 µg per mL in a final reaction volume of 60 µL and incubated for 1 h at RT in the dark. AlphaScreen PPI signals were measured in a CLARIOstar reader (BMG Labtech GmbH).

[4] = system: GST-LMP1_181-386; assay: AlphaScreen PPI, TRAF6 mutants binding to LMP1; design: species or system Epstein-Barr virus; TRAF6 binding to LMP1 (AlphaScreen), mean: unit not given here
Description: as §1, §2

[5] = system: HA-LMP1; assay: Confocal immunofluorescence colocalization of Flag-TRAF6 with HA-LMP1 in HeLa cells; type: cell-based, Epstein-Barr virus; conditions: for colocalization of TRAF6 with LMP1, mean: mean of ten cells
Description: HeLa cells were seeded onto cover glasses (Thermo Scientific, Menzel) in 24-well plates one day before transfection. Cells were transfected at 50–60% confluency with 50 ng of pCMV-HA-LMP1 plasmids and 100 ng of pRK5-Flag-TRAF6 plasmids, adjusted to a total of 500 ng DNA per sample with pRK5 empty vector, using Lipofectamine 2000 (Thermo Fisher Scientific) according to the manufacturer’s instructions. At 24 h posttransfection, cells were washed once with PBS and fixed with 4% paraformaldehyde (Sigma-Aldrich) for 20 min at RT, followed by permeabilization with 0.3% (v/v) Triton X-100 and blocking with 5% (v/v) FBS in PBS for 1 h at RT. For immunostaining, the cells were incubated overnight with the primary antibodies α-HA (1:1000, clone 16B12, BioLegend) and α-DYKDDDDK (1:1000, clone L5, BioLegend) at 4 °C. The secondary antibodies goat α-mouse Alexa 488 (1:500, cross-adsorbed, Invitrogen, #A-11029) and goat α-rat Alexa 555 (1:500, cross-adsorbed, Invitrogen, #A-21434) were added for 1.5 h at RT. Microscope slides were sealed with cover glasses using Mowiol mounting medium (Sigma-Aldrich). Nuclei were stained with Hoechst 33258 (Sigma-Aldrich). All samples were imaged using a Leica TCS SP5 confocal microscope with 405 nm, 488 nm, 543 nm or 633 nm laser lines, scanning each channel separately under image capture conditions that eliminated channel overlap. For each single experiment, 10 transfected cells positive for both constructs were randomly captured as single-cell images for quantification. The resulting images were then analyzed using the Leica TCS SP5 colocalization analyses application (LAS AF Version 2.7.3.9723). Analysis was performed with default parameters.

B1: GST-LMP1_(181-386) A204xAxA (domain or fragment)
chain: LIWMYYHGQRHSDEHHHDDSLPHAQAAADDSGHESDSNSNEGRHHLLVSGAGDGPPLCSQNLGAPGGGPDNGPQDPDNTDDNGPQDPDNTDDNGPHDPLPQDPDNTDDNGPQDPDNTDDNGPHDPLPHSPSDSAGNDGGPPQLTEEVENKGGDQGPPLMTDGGGGHSHDSGHGGGDPHLPTLLLGSSGSGGDDDDPHGPVQLSYYD
notes: also called A204xAxA mutant; CTAR1 mutant; source: E. coli DH5α or BL21 Codon Plus RIPL, purified (glutathione Sepharose 4B)
binding result [1]: binds

B2: GST-LMP1_(181-386) Q381E (domain or fragment)
chain: B1 chain with A24P, A26Q, A28T, Q201E
notes: also called LMP1 Q381E; source: E. coli DH5α or BL21 Codon Plus RIPL, purified (glutathione Sepharose 4B)
Kd [1]: 14.7 nM

B3: GST-LMP1_(181-386) S383A (domain or fragment)
chain: B1 chain with A24P, A26Q, A28T, S203A
notes: source: E. coli DH5α or BL21 Codon Plus RIPL, purified (glutathione Sepharose 4B)
binding result [1]: binds

B4: GST-LMP1_(181-386) Y384F (domain or fragment)
chain: B1 chain with A24P, A26Q, A28T, Y204F
notes: also called LMP1 Y384F; source: E. coli DH5α or BL21 Codon Plus RIPL, purified (glutathione Sepharose 4B)
binding result [1]: binds

B5: GST-LMP1_(181-386) G378A (domain or fragment)
chain: B1 chain with A24P, A26Q, A28T, G198A
notes: as for B3
binding result [1]: binds

B6: GST-LMP1_(181-386) L382A (domain or fragment)
chain: B1 chain with A24P, A26Q, A28T, L202A
notes: as for B3
binding result [1]: binds

B7: GST-RANK_(314-355) (domain or fragment)
chain: GGGPYAQGEDARMLSLVSKTEIEEDSFRQMPTEDEYMDRPSQ
notes: also called TRANCE receptor; source: E. coli DH5α or BL21 Codon Plus RIPL, purified (glutathione Sepharose 4B)
Kd [1]: 7.7 nM

B8: GST-LMP1_(181-386) Y385A (domain or fragment)
chain: B1 chain with A24P, A26Q, A28T, Y205A
notes: also called mutation of Y385 (alanine scan); source: E. coli DH5α or BL21 Codon Plus RIPL, purified (glutathione Sepharose 4B)
binding result [1]: binds

B9: K469A (protein, UniProt Q9Y4K3 1-522, looked up, variant K469A)
TNF receptor-associated …: MSLLNCENSCGSSQSESDCCVAMASSCSAVTKDDSVGGTASTGNLSSSFMEEIQGYDVEFDPPLESKYECPICLMALREAVQTPCGHRFCKACIIKSIRDAGHKCPVDNEILLENQLFPDNFAKREILSLMVKCPNEGCLHKMELRHLEDHQAHCEFALMDCPQCQRPFQKFHINIHILKDCPRRQVSCDNCAASMAFEDKEIHDQNCPLANVICEYCNTILIREQMPNHYDLDCPTAPIPCTFSTFGCHEKMQRNHLARHLQENTQSHMRMLAQAVHSLSVIPDSGYISEVRNFQETIHQLEGRLVRQDHQIRELTAKMETQSMYVSELKRTIRTLEDKVAEIEAQQCNGIYIWKIGNFGMHLKCQEEEKPVVIHSPGFYTGKPGYKLCMRLHLQLPTAQRCANYISLFVHTMQGEYDSHLPWPFQGTIRLTILDQSEAPVRQNHEEIMDAKPELLAFQRPTIPRNPAGFGYVTFMHLEALRQRTFIKDDTLLVRCEVSTRFDMGSLRREGFQPRSTDAGV
coprecipitated HA-LMP1 signal (densitometry), mean ([2]; HEK293, mean of n = 3): 17563327
interaction of TRAF6 mutants with LMP1 in HEK293 cells (in words) ([2]; coimmunoprecipitation): no negative effect on the interaction
effect of TRAF6 mutation on binding to CD40 (in words) ([3]; AlphaScreen PPI): did not affect the TRAF6 interaction with LMP1 or CD40
TRAF6 binding to CD40 (AlphaScreen), mean ([3]; Figure 2b, mean of n = 3): 89.86
TRAF6 binding to CD40 (AlphaScreen) ([3]; Figure 2b, relative to mean wt 100, replicate 1): 52.8
TRAF6 binding to CD40 (AlphaScreen) ([3]; Figure 2b, replicate 2): 105.6
TRAF6 binding to CD40 (AlphaScreen) ([3]; Figure 2b, replicate 3): 111.2
effect of TRAF6 mutation on binding to LMP1 (in words) ([4]; AlphaScreen PPI): did not affect the TRAF6 interaction with LMP1 or CD40
TRAF6 binding to LMP1 (AlphaScreen), mean ([4]; Figure 2a, mean of n = 3): 102.4
TRAF6 binding to LMP1 (AlphaScreen) ([4]; Figure 2a, relative to mean wt 100, replicate 1): 73.0
TRAF6 binding to LMP1 (AlphaScreen) ([4]; Figure 2a, replicate 2): 116.6
TRAF6 binding to LMP1 (AlphaScreen) ([4]; Figure 2a, replicate 3): 117.5
colocalization with HA-LMP1 (in words) ([5]; confocal microscopy): colocalized to a high extent with HA-LMP1 clusters
colocalization of TRAF6 with LMP1, mean [5]: 98.27

B10: 371-T6wt: TRAF6 wild-type coexpressed with LMP1Δ371-386 (protein, UniProt Q9Y4K3 1-522, looked up)
TNF receptor-associated …: B9 TNF receptor-associated … with A469K
colocalization of TRAF6 with LMP1, mean [5]: 32.37
